Experimental data reported in patent publication US20240228647A1, “OFATUMUMAB FOR TREATING MULTIPLE SCLEROSIS IN ASIAN PATIENTS” (Novartis AG, priority 2021, published 2024).
Like-named read-outs stand apart in the source and are kept apart here. Marks after values point to notes of the source that are not given here.

Experiments:
[1] = tested on: patients with RMS; format: in vivo, human
Method: (§1) Ofatumumab was investigated in 1882 patients with RMS from two identical Phase III randomized, double-blind, double-dummy, active-comparator controlled, parallel-group, multicenter studies of identical design (Study I and Study II). Patients were randomized to receive either ofatumumab, OMB (20 mg s.c injections every 4 weeks, after an initial loading regimen of 3 injections on Day 1, 7, and 14), or teriflunomide, TER (14 mg p.o. once a day) as active comparator. For brevity, the teriflunomide data are not shown hereinafter.
(§2) The maximum treatment duration for an individual patient was 30 study months (approximately 2.5 years). The two studies included a total of 71 patients of Asian race (36 patients in ofatumumab and 35 patients in teriflunomide treatment groups). This Example also includes the Asian patients data from oncology studies (Study A and Study B), as supportive data, where required.
For the safety analyses of this report, non-serious treatment emergent adverse events (TEAEs) up to and including safety cut-off (i.e. 100 days after last study drug administration) and serious TEAEs regardless of the safety cutoff were considered (if reported prior to the data cut-off of Studies I and II). Common terminology criteria for adverse events (CTCAE) grading was used to record the severity of each AE. The latest version of CTCAE available at the time of TEAE reporting was used. […] The three most frequently reported AEs by SOC were ‘General disorders and administration site conditions’ ‘Infections and infestations’ and ‘Injury, poisoning and procedural complications’ in the Asian and ROW subgroups by race (Table 7). […] In the Asian subgroup, 1 patient experienced SAEs of urinary tract infections, urosepsis and testicular infarction in the ofatumumab group and 1 patient reported an SAE of nephrolithiasis in the teriflunomide group (Table 8). Due to the small number of Asian patients by race and region, results should be interpreted with caution.
AEs of special interest were summarized by risk name, PT and treatment. Furthermore, the incidence of any AE that fulfilled the search terms as defined in eCRS were summarized by risk name, level, and maximum CTCAE grade. In this section, AESIs are first described for subgroups by race and then by region. […] The definitions of AEs of special interest correspond to the identified or potential risks for ofatumumab and its class of drug as well as those for the comparator (teriflunomide). AESIs, based on the safety profiles of ofatumumab, comparator, and other anti-CD20 mABs are: • Injection-related reactions including injection-systemic reaction and injection-site • reactions • Infections, including opportunistic infections, HBV infection reactivation and PML • Malignant and premalignant disorders • Hepatic Safety • Neutropenia

[2] = human, in vivo
[3] = tested on: patients with RMS; experiment: Phase II study, Japan and non-Japan subgroups of patients with RMS; format: in vivo, human
[4] = tested on: patients with Relapsing Multiple Sclerosis; conditions: for COVID-19 outcome / COVID-19 symptoms duration: serious case
[5] = tested on: patients with RMS; experiment: Annualized rate of new or enlarging T2 lesions, Phase III Studies I and II; format: in vivo, human; conditions: for New or enlarging T2 lesions rate reduction (%): vs teriflunomide
Method: as §1, §2
The annualized rate of new or enlarging T2 lesions was a key secondary efficacy endpoint in the pivotal Phase III studies.

[6] = patient 5409018, OMB interrupted
[7] = patient 5608014, OMB interrupted
[8] = patient 5800004, drug withdrawn
[9] = patient 5801015, OMB interrupted

Substance: ofatumumab [OMB]
- TEAE: Gastrointestinal disorders, % ([1]; Asian (race)): (11.1) %
- TEAE: Nervous system disorders, % ([1]; Asian (race)): (11.1) %
- TEAE: Reproductive system and breast disorders, % ([1]; Asian (race)): (11.1) %
- AESI: Injection-site reaction (any reaction), % ([1]; Rest of World (race)): (11.1) %
- AE by PT: alopecia, % ([1]; in vivo): 5.7%
- AE by PT: alopecia, patients ([1]; in vivo): 52
- AE by PT: nasopharyngitis, % ([1]; in vivo): 18.5%
- AE by PT: nasopharyngitis, patients ([1]; in vivo): 168
- AE by PT: pyrexia, % ([1]; in vivo): 33.3%
- AE by PT: pyrexia, patients ([1]; in vivo): 12
- AE by PT: upper respiratory tract infection, % ([1]; in vivo): 11.1%
- AE by PT: upper respiratory tract infection, patients ([1]; in vivo): 4
- AESI Neutropenia, % ([1]; in vivo): (1.0) %
- AESI: Drug abuse and dependence, % ([1]; in vivo): 0.1%
- AESI: Drug abuse and dependence, number of events [E] ([1]; in vivo): 1
- AESI: Herpes viral infections, % ([1]; in vivo): 5.1%
- AESI: Herpes viral infections, number of events [E] ([1]; in vivo): 61
- AESI: Injection-site reaction (any reaction), % ([1]; in vivo): (2.8) %
- AESI: Lower Respiratory tract Infections, % ([1]; in vivo): 3.3%
- AESI: Lower Respiratory tract Infections, number of events [E] ([1]; in vivo): 31
- AESI: Neoplasms, % ([1]; in vivo): 2.6%
- AESI: Neoplasms, number of events [E] ([1]; in vivo): 28
- AESI: Neutropenia, % ([1]; in vivo): 1.0%
- AESI: Neutropenia, number of events [E] ([1]; in vivo): 13
- AESI: Opportunistic infections, % ([1]; in vivo): 0.1%
- AESI: Opportunistic infections, number of events [E] ([1]; in vivo): 1
- AESI: Pregnancy, % ([1]; in vivo): 0.1%
- AESI: Pregnancy, number of events [E] ([1]; in vivo): 1
- AESI: Premalignant disorders, % ([1]; in vivo): 0.8%
- AESI: Premalignant disorders, number of events [E] ([1]; in vivo): 9
- AESI: Risk of malignancy, % ([1]; in vivo): 0.5%
- AESI: Risk of malignancy, number of events [E] ([1]; in vivo): 5
- AESI: Suicidal Ideation and Behavior, % ([1]; in vivo): 0.9%
- AESI: Suicidal Ideation and Behavior, number of events [E] ([1]; in vivo): 9
- AESI: Urinary tract infection, number of events [E] ([1]; in vivo): 4
- AESI: Varicella-Zoster virus infections, % ([1]; in vivo): 2.0%
- AESI: Varicella-Zoster virus infections, number of events [E] ([1]; in vivo): 19
- Drug abuse and dependence, % ([1]; in vivo): (0.1) %
- Pregnancy, % ([1]; in vivo): (0.1) %
- SAE by PT: Appendicitis, % ([1]; in vivo): 0.9%
- SAE by PT: Appendicitis, patients ([1]; in vivo): 8
- Serious TEAE: Blood and lymphatic system disorders, % ([1]; in vivo): (0.2) %
- Serious TEAE: Cardiac disorders, % ([1]; in vivo): (0.3) %
- Serious TEAE: Ear and labyrinth disorders, % ([1]; in vivo): (0.3) %
- Serious TEAE: Gastrointestinal disorders, % ([1]; in vivo): (0.9) %
- Serious TEAE: General disorders and administration site conditions, % ([1]; in vivo): (0.3) %
- Serious TEAE: Hepatobiliary disorders, % ([1]; in vivo): (0.5) %
- Serious TEAE: Immune system disorders, % ([1]; in vivo): (0.1) %
- Serious TEAE: Injury, poisoning and procedural complications, % ([1]; in vivo): (1.4%
- Serious TEAE: Investigations, % ([1]; in vivo): (0.2) %
- Serious TEAE: Musculoskeletal and connective tissue disorders, % ([1]; in vivo): (0.9) %
- Serious TEAE: Neoplasms benign, malignant and unspecified (incl cysts and polyps), % ([1]; in vivo): (1.0) %
- Serious TEAE: Nervous system disorders, % ([1]; in vivo): (0.8) %
- Serious TEAE: Psychiatric disorders, % ([1]; in vivo): (1.1) %
- Serious TEAE: Respiratory, thoracic and mediastinal disorders, % ([1]; in vivo): (0.2) %
- Serious TEAE: Skin and subcutaneous tissue disorders, % ([1]; in vivo): (0.1) %
- TEAE: Cardiac disorders, % ([1]; in vivo): (2.9) %
- TEAE: Congenital, familial and genetic disorders, % ([1]; in vivo): (0.1) %
- TEAE: Endocrine disorders, % ([1]; in vivo): (1.0) %
- TEAE: Gastrointestinal disorders, % ([1]; in vivo): (24.2) %
- TEAE: Hepatobiliary disorders, % ([1]; in vivo): (1.9) %
- TEAE: Immune system disorders, % ([1]; in vivo): (1.8) %
- TEAE: Neoplasms benign, malignant and unspecified (incl cysts and polyps), % ([1]; in vivo): (2.6) %
- TEAE: Nervous system disorders, % ([1]; in vivo): (29.5) %
- TEAE: Reproductive system and breast disorders, % ([1]; in vivo): (5.9) %
- TEAE: Social circumstances, % ([1]; in vivo): (0.3) %
- TEAE: Vascular disorders, % ([1]; in vivo): (6.0) %
- Ofatumumab concentrations in Asian subjects and White subjects [2]: Comparable ofatumumab concentrations
- Race as a covariate in the population PK analysis [2]: not found to be a significant covariate
- Half-life at steady state ([2]; sc, 20 mg): approximately 16 days
- Depletion of CD19+ B-cells and CD3+CD20+ T-cells [3]: rapid and consistent depletion
- Efficacy vs. placebo in lesion suppression ([3]; Phase II study): superior efficacy
- COVID-19 outcome Ongoing, cases ([4]; non-serious cases (n = 29)): 0
- COVID-19 outcome Recovered, cases ([4]; non-serious cases (n = 29)): 29
- COVID-19 outcome Recovering, cases ([4]; non-serious cases (n = 29)): 0
- Complete recovery from COVID-19, cases ([4]; of 35 confirmed cases): 34
- COVID-19 outcome [4, 6]: Complete
- COVID-19 symptoms duration [4, 6]: ~50 days
- COVID-19 outcome [4, 7]: Complete
- COVID-19 symptoms duration [4, 7]: 18 days
- COVID-19 outcome [4, 8]: Fatal
- COVID-19 symptoms duration [4, 8]: ~30 days
- COVID-19 outcome ([4]; patient 5800043, OMB continued): Complete
- COVID-19 symptoms duration ([4]; patient 5800043, OMB continued): 11 days
- COVID-19 outcome [4, 9]: Complete
- COVID-19 symptoms duration [4, 9]: 15 days
- COVID-19 outcome ([4]; patient 5806001, OMB continued): Complete
- COVID-19 symptoms duration ([4]; patient 5806001, OMB continued): 10 days
- COVID-19 outcome Fatal, cases ([4]; serious cases (n = 6)): 1
- COVID-19 outcome Recovered, cases ([4]; serious cases (n = 6)): 5
- New or enlarging lesions/patient years (lesion years) ([5]; Asian): (1.00)
- Number of new or enlarging lesions ([5]; Asian): 44/44
- New or enlarging lesions/patient years (lesion years) ([5]; Rest of World): (0.84
- Number of new or enlarging lesions ([5]; Rest of World): 1185/1404
- Reduction of rate of new or enlarging T2 lesions compared with teriflunomide ([5]; overall population): 82.9%
- New or enlarging T2 lesions rate reduction (%) ([5]; Asian): 59.0/0.041* %
- New or enlarging T2 lesions rate reduction (%) ([5]; Rest of World): 83.3/<0.001* %
